Source: US20100086997A1 (published 2010)

B1: Fc-fused recombinant human P75 (Fc fusion, UniProt P08138 29-250, looked up)
chain: KEACPTGLYTHSGECCKACNLGEGVAQPCGANQTVCEPCLDSVTFSDVVSATEPCKPCTECVGLQSMSAPCVEADDAVCRCAYGYYQDETTGRCEACRVCEAGSGLVFSCQDKQNTVCEECPDGTYSDEANHVDPCLPCTVCEDTERQLRECTRWADAECEEIPGRWITRSTPPEGSDSTAPSTQEPEAPPEQDLIASTVAGVVTTVMGSSQPVVTRGTTDN
notes: Bought from R&D Systems or made in-house; also called p75 neurotrophin receptor; LNGFR; not shown: Fc part
B2: NT4/5 (ligand, UniProt P34130 81-210, looked up)
chain: GVSETAPASRRGELAVCDAVSGWVTDRRTAVDLRGREVEVLGEVPAAGGSPLRQYFFETRCKADNAEEGGPGAGGGGCRGVDRRHWVSECKAKQSYVRALTADAQGRVGWRWIRIDTACVCTLLSRTGRA
B3: NT3 (ligand, UniProt P20783 139-257, looked up)
chain: YAEHKSHRGEYSVCDSESLWVTDKSSAIDIRGHQVTVLGEIKTGNSPVKQYFYETRCKEARPVKNGCRGIDDKHWNSQCKTSQTYVRALTSENNKLVGWRWIRIDTSCVCALSRKIGRT
notes: 'native ligands' bought from R&D Systems or made in-house
B4: brain-derived neurotrophic factor (BDNF) (ligand, UniProt P23560 129-247, looked up)
chain: HSDPARRGELSVCDSISEWVTAADKKTAVDMSGGTVTVLEKVPVSKGQLKQYFYETKCNPMGYTKEGCRGIDKRHWNSQCRTTQSYVRALTMDSKKRIGWRFIRIDTSCVCTLTIKRGR

How the values were obtained:
Assay in all cases: SPR (Biacore 3000), Fc-fused receptor amine-coupled to CM5 chip, ligand in solution, 25 C
ProNGF = ProNGF (UniProt P01138 19-241)
Chain of ProNGF (P01138 19-241): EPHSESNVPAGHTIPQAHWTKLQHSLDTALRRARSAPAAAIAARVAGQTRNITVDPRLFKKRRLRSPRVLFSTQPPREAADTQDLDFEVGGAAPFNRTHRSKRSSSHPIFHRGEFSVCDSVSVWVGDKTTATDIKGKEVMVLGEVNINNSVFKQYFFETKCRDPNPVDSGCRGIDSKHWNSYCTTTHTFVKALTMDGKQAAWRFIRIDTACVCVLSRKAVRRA
Protocol: (§1) A standard amine-coupling protocol was used in HBS-EP running buffer at 5 μl/min and involved three steps. […]. First, flow cells were activated with a 7-minute injection of a freshly prepared mixture of 200 mM EDC in 50 mM NHS; this step converted the chip's carboxylic acid groups to reactive esters. Next, receptors were diluted to ˜10 μg/mL in 10 mM sodium acetate buffer at pH 4.5 and coupled to the chip until the desired level had been reached. Finally, excess reactive esters were blocked with a 7-minute injection of 1M sodium ethanolamine-HCl (pH 8.5).
(§2) The Fab fragment of antibody 200.38B8 (38B8) was diluted from 0.7-480 nM in 3-fold increments. Samples were injected for 30 seconds at 100 μl/min allowing dissociation times of up to 10 mins. After each binding cycle, receptor surfaces were regenerated with a mildly acidic cocktail (10 mM glycine-HCl (pH 4.0), 500 mM NaCl, and 20 mM EDTA). […] Kinetic rate constants (kon and koff) were determined by fitting the binding data globally to a mass transport model and binding affinities were calculated from their ratio, KD=koff/kon.

[1] = target: T1, Fc-fused recombinant human TrkC (human, UniProt Q16288 32-429)
T1 construct: Bought from R&D Systems or made in-house; not shown: Fc part
Protocol: as §1, §2

[2] = target: B1
Protocol: as §1, §2

[3] = target: T2, human TrkB-Fc fusion protein (human, UniProt Q16620 32-430)
T2 construct: Bought from R&D Systems or made in-house; also called HuTrkB; Fc-fused recombinant human TrkB; not shown: Fc part
T2 sequence (Q16620 32-430 limits assumed): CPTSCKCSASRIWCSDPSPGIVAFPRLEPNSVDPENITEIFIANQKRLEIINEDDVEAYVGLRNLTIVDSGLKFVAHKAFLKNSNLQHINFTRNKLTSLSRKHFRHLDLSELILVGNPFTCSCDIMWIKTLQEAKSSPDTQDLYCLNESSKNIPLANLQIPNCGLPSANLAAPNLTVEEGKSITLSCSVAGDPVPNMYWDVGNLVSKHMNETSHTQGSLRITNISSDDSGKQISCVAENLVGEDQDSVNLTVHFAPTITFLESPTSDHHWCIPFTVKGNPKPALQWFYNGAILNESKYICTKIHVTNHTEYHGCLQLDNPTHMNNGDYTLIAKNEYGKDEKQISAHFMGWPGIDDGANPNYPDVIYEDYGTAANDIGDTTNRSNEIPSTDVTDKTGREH
Protocol: as §1, §2

[4] = target: T3, Fc-fused recombinant human TrkA (human, UniProt P04629-2 33-407, limits assumed)
T3 construct: Bought from R&D Systems or made in-house; not shown: Fc part
T3 sequence (P04629 other isoform, or with tags, fused parts or gaps limits assumed): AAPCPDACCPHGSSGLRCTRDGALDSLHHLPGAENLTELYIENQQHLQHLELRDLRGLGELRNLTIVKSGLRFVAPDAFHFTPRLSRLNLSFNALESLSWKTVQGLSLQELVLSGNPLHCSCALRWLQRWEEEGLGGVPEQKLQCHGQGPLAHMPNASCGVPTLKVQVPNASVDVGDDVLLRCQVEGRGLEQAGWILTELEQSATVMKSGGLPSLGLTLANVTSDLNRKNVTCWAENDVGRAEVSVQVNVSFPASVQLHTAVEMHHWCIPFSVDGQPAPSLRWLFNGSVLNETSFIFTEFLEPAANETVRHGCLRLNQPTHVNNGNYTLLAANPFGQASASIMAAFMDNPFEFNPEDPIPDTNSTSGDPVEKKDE
Protocol: as §1, §2

## B1
ProNGF
  Kd: 130 nM
  koff: 0.0858 s⁻¹
  kon: 658000 M⁻¹ s⁻¹

## B2
[1]
  binding result: no binding (tested: 0.08-250 nM)
[2]
  Kd: 88 nM
  koff: 0.305 s⁻¹
  kon: 3.45e+06 M⁻¹ s⁻¹
[3]
  Kd: < 0.2 nM
  koff: 0.002 s⁻¹
  kon: > 1e+07 M⁻¹ s⁻¹
[4]
  Kd: 17 nM
  koff: 0.04 s⁻¹
  kon: 2.1e+06 M⁻¹ s⁻¹

## B3
[3]
  Kd: < 4.4 nM

## B4
[2]
  Kd: < 2.1 nM
[3]
  Kd: < 0.034 nM
